Assay results from article PMC8636562, “Mounting, structure and autocleavage of a type VI secretion-associated Rhs polymorphic toxin” (Nature Communications, 2021).

Tests used:
[1] = target: the molecule itself; test: cryo-EM structure; EagR-Strep/Rhs1-FLAG (D1338N, Y1351A, Y1375A) complex purified by StrepTrap and Superose 6; single particle, Talos Arctica 200 kV; 3.72 Å unmasked map, 3.17 Å masked on the Rhs1 shell; EagR dimer homology model fitted in low-resolution density
[2] = target: T1, Rhs1 D1338N Y1351A Y1375A, C-terminally FLAG-tagged (catalytic-null mutant used for cryo-EM) (Photorhabdus laumondii (P. luminescens …, UniProt Q7N9I0 1-1471, D1338N | Y1351A | Y1375A)); test: as above; conditions: both partners purified
T1 construct: Rhs1 (Plu0353) of Photorhabdus laumondii with D1338N (no C-terminal autocleavage) and Y1351A, Y1375A (no toxicity); atomic model built for residues 272-1357; also called Rhs1^FL; source: E. coli BL21(DE3), co-purified with EagR (StrepTrap HP, Superose 6)
T1 sequence (looked up): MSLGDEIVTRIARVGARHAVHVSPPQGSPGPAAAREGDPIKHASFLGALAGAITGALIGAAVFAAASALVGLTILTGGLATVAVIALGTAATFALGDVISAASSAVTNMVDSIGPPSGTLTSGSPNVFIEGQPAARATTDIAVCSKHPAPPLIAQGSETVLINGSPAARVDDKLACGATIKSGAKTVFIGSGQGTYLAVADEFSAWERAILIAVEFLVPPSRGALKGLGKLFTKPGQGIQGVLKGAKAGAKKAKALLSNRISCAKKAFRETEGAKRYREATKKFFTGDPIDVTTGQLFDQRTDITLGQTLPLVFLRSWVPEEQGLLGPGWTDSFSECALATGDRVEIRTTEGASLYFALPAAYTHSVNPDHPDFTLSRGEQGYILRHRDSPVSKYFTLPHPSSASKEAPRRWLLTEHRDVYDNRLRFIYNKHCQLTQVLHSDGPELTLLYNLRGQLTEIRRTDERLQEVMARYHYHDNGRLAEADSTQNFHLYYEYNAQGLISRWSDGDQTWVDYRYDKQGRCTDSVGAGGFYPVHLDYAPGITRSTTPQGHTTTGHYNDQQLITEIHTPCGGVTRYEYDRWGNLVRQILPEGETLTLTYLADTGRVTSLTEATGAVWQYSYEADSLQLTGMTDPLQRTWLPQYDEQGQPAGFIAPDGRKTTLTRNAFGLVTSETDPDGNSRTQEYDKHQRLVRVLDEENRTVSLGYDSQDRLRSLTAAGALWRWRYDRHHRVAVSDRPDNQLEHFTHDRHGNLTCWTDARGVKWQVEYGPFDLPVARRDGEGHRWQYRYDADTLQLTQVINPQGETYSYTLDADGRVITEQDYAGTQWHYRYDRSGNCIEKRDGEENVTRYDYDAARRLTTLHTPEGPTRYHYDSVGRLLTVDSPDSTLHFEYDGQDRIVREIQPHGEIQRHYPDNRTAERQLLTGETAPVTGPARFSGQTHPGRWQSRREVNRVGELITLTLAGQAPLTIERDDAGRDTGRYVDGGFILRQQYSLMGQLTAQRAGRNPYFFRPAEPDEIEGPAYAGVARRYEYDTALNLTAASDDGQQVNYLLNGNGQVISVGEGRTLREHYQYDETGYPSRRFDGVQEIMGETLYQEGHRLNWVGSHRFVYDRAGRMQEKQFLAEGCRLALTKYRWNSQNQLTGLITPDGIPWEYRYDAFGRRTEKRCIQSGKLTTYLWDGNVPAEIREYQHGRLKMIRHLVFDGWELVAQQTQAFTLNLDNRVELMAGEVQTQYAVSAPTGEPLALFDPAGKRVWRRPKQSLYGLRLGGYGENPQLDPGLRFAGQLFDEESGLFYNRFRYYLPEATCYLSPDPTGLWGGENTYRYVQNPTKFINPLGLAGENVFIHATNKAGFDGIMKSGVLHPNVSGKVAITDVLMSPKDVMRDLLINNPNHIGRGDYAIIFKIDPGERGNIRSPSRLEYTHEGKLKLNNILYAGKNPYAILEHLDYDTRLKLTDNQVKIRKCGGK

B1: Photorhabdus laumondii EagR chaperone (Plu0354), C-terminally Strep-tagged (natural protein)
chain: MENTTYQMNEGSLAIPGNWRDESMNVFVLPDDSGINLVVSRTPVPAGMDNPAYYEQTLEQFCTHLPGYQEHQRSEITLSQQPARRLDYQWTSPEGDMYQTVILQIRGPLLLTFNLTSPAPFEAGQRDTLLAIVHSFQAA
notes: Eag (DUF1795) family chaperone EagR of Photorhabdus laumondii, Plu0354; also called ^STEagR; EagR^ST; source: E. coli BL21(DE3), co-produced, in total cell extract; also purified in complexes (Strep-Tactin resin; StrepTrap HP and Superose 6); not shown: Strep-tag, C-terminal, kept
B1: binds [1]; binds [2].
